B1: GCC-box-like sequence 1 (dsDNA)
DNA 1: GAATGGGCGATAGAGCTCATACTTACCCGCCTCTCTTCACATTCAAACTTCTAATATTA
DNA 2: TAATATTAGAAGTTTGAATGTGAAGAGAGGCGGGTAAGTATGAGCTCTATCGCCCATTC
B2: mGCC-box-like sequence 1 (dsDNA)
DNA 1: GAATGGGCGATAGAGCTCATACTTAAAAGCCTCTCTTCACATTCAAACTTCTAATATTA
DNA 2: TAATATTAGAAGTTTGAATGTGAAGAGAGGCTTTTAAGTATGAGCTCTATCGCCCATTC
B3: GCC-box-like sequence 2 (dsDNA)
DNA 1: AATTTACAAAATTATAGAAGTCAAATTACGACGTCGTAAATCTGGCGGGACTTTAATGG
DNA 2: CCATTAAAGTCCCGCCAGATTTACGACGTCGTAATTTGACTTCTATAATTTTGTAAATT
B4: mGCC-box-like sequence 2 (dsDNA)
DNA 1: AATTTACAAAATTATAGAAGTCAAATTACGACGTCGTAAATCTGGCAAAACTTTAATGG
DNA 2: CCATTAAAGTTTTGCCAGATTTACGACGTCGTAATTTGACTTCTATAATTTTGTAAATT

Target: CitERF71 (Citrus sinensis Osbeck (Newhall sweet …, UniProt A0A067HCL9 1-233))
Sequence (A0A067HCL9 entry or part of it): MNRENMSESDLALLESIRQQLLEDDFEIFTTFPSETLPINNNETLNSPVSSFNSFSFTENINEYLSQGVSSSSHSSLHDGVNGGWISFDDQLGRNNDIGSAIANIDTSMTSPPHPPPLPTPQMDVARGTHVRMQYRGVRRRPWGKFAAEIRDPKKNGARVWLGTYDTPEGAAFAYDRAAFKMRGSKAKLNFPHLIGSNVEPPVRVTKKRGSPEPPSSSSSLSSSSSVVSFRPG
Test: EMSA; LightShift Chemiluminescent EMSA kit per manufacturer and Nieuwenhuizen et al. 2015; buffer, salt, pH and temperature not stated
Conditions: protein: recombinant; tags: N-terminal 6xHN (His) tag; label: 3' biotin; blunt

Question: Does B1 bind?
Answer: binds

Question: Does B2 bind?
Answer: no binding

Question: Does B3 bind?
Answer: binds

Question: Does B4 bind?
Answer: no binding
